According to patent publication US20260069656A1, “Nutritive Polypeptides and Formulations Thereof, and Methods of Production and Use Thereof” (Axcella Health Inc., priority 2013, published 2026):
Each block holds one molecule with its values, some of them ahead of it.

Columns and labels:
[1] = Thermostability, ProteoStat Thermal Shift Stability Kit, temperature of aggregation; format: physicochemical
Procedure: Thermostability. The thermostability of proteins in a buffer cocktail of Citric Acid and Dibasic Sodium Phosphate over a pH range of 2.8 to 7.1 (preparation described above in Table E31B) was determined using the ProteoStat® Thermal Shift Stability Kit (Enzo Life Sciences) according to the manufacturer's standard protocol. Briefly, protein solutions (˜10 mg/ml) containing 1× ProteoStat TS Detection Reagent were heated from 25° C. to 95° C. at a rate of 0.5° C. per 30 sec using a real-time PCR (rtPCR) thermocycler (BioRad) equipped with a plate reader (SynergyMx, Biotek) while monitoring the fluorescence with a Texas Red filter.

[2] = Intact half-life during simulated gastric fluid (SGF) digestion; details: for SGF Half-life (t½): SGF pH 1.5, pepsin:polypeptide 1:20 w/w, 37° C., produced in E. coli unless otherwise noted; for Half-life: purified proteins, chip electrophoresis, SGF
[3] = SGF digest of the 168 nutritive polypeptide library, intact protein by LC-MS/MS spectral counts; format: in vitro ADME; details: proteins detected in the 168 nutritive polypeptide library
Procedure: Nutritive polypeptide intact half-life determination in a complex mixture. The in vitro intact half-life of multiple polypeptides in a complex mixture was determined using the simulated gastric in vitro digestion described above. Briefly, the 168 nutritive polypeptide library was generated as described herein by cloning, transforming, and expressing a gene library encoding 168 proteins as a single mixture. The recombinantly expressed proteins were purified from host cell proteins by IMAC purification as described herein.
The 168 Protein Library was treated with SGF as described above and the t=0 and t=10 min samples were analyzed for intact protein by LC-MS/MS. To begin, 10 μg of sample was loaded onto a 10% SDS-PAGE gel (Invitrogen) and run approximately 5 cm into the gel. The gel was excised into ten fractions from 100 kD to the dye front and the gel slices were processed by washing with 25 mM ammonium bicarbonate, followed by acetonitrile. Gel fractions were then reduced with 10 mM dithiothreitol at 60° C., followed by alkylation with 50 mM iodoacetamide at room temperature. Finally, the samples were digested with trypsin (Promega) at 37° C. for 4 h and the digestions were quenched with the addition of formic acid. The samples were then analyzed by nano LC/MS/MS using an EasynLC 1000 HPLC system interfaced to a ThermoFisher Q Exactive. Peptides were loaded on a trapping column and eluted over a 75 μm analytical column at 350 nL/min; both columns were packed with PepMap C18 3 μm resin (ThemoFisher). A 1 hour gradient was employed. The mass spectrometer was operated in data-dependent mode, with MS and MS/MS performed in the Orbitrap at 70,000 FWHM resolution and 17,500 FWHM resolution, respectively. The fifteen most abundant ions were selected for MS/MS. Data were searched against an appropriate database using Mascot to identify peptides. Mascot DAT files were parsed into the Scaffold software for validation, filtering and to create a nonredundant list per sample. Data were filtered at 1% protein and peptide false discovery rate (FDR) and requiring at least two unique peptides per protein. A full list of detected proteins and their spectral counts (SpC) was generated and reported as a function of each collected gel fraction. SpC are a count of the number of spectra identified for a given protein and are used as a measure of relative protein abundance (Liu, H. et al., Analytical Chemistry 2004, 76:4193-4201). To calculate the percentage of intact protein remaining at the 10 min time point of the SGF digest the number of SpC representative of intact peptide in the t=10 min sample were divided by the number of SpC representative of intact peptide in the t=0 min sample. The number of SpC representative of intact peptide was defined as the sum of the SpC in the fraction with the highest number of SpC assigned to that protein in the t=0 min sample and the two flanking fractions.

[4] = system: kinase activity of SEQID-00338 (AMP + ATP→2ADP); experiment: Kinase activity of SEQID-00338 and mutants, ADP-Glo Max Assay; format: biochemical; details: 7 μg/mL, 30 minute reaction at 30° C.; N=2
Procedure: Determination of the kinase activity of SEQID-00338. The ADP-Glo™ Max Assay was obtained from Promega (Catalog number V7001, Madison, WI). Adenosine Monophosphate was obtained from Sigma-Aldrich (Catalog number A1752, St. Louis, MO). 5× Kinase Buffer was prepared w/1.211 g Tris Base (Catalog number BP152-2, Fisher Bioreagents, Pittsburgh, PA), 692 μL 12% hydrochloric acid solution (Catalog number BDH3026-500MLP, VWR, Radnor, PA), 10.0 mL 500 mM magnesium chloride (Catalog number BP214-500, Fisher Bioreagents, Pittsburgh, PA) and the volume brought to 50 mL with MilliQ water and filtered through 0.22 μm PES filter (Catalog number SCGP00525, Millipore, Billerica, MA) into a sterile 50 mL tube.
Twelve his-tag purified mutant proteins and the wild-type protein at 35 μg/mL in Tris buffer were serially diluted to 7.0 and 1.4 μg/mL. Prepared kinase reaction mix at 0.5 mM AMP/0.5 mM ATP to test for activity and at 0 mM AMP/0 mM ATP to assay background activity by diluting 5× Kinase Buffer with appropriate volumes of 10 mM AMP and 10 mM ATP in MilliQ water. Duplicate reactions were prepared by mixing 9 μL of the reaction mixture with 6 μL of diluted SEQID-00338, mixing by pipetting up and down and dispensing 5 μL into a 384-well white OptiPlate (PerkinElmer, Waltham, MA). An ADP standard curve was prepared by serially diluting 4 mM ADP in MilliQ water and adding kinase buffer to 1× for a standard at 0.0005, 0.001, 0.005, 0.01, 0.05, 0.1, 1.5, 1, 2, 3, and 4 mM ADP. The plate was covered with a foil plate seal and incubated at 30° C. for 30 min. Following the kinase reaction, 5 μL of ADP-Glo™ Reagent was added to each well. The plate was sealed with a foil plate seal and placed on a horizontal plate shaker at 450 rpm for 2 minutes at room temperature. The plate was removed from the plate shaker and incubated at room temperature for 40 minutes. The plate was then centrifuged for 15 seconds at 1109× rcf and 10 μL of ADP-Glo™ Max Detection Reagent was added. The plate was sealed with a foil plate seal and shaken on a horizontal plate shaker at 450 rpm at room temperature for 2 minutes. The plate was then removed from the plate shaker and incubated at room temperature for 60 minutes. The plate was centrifuged for 15 seconds at 1109× rcf and the luminescence read on an EnspireAlpha plate reader (PerkinElmer, Waltham, MA).
The ADP standard curve was used to determine the concentration of ADP in sample wells in the presence or absence of substrate. Concentrations were determined by performing a non-linear 4 parameter logistic on the X=log(X) transformed ADP standard luminescence values. […] Where the background concentration of ADP in the absence of substrate was calculable the average of those values were subtracted from the calculated ADP concentration in the substrate incubated wells. Activity knock out was calculated by percentage activity relative to purified wild-type protein at the same concentration.

B1: SEQID-00601: protein of the 168 nutritive polypeptide library (protein, listed as Agaricus bisporus)
chain: MTRSWEPGTQYNLGDVVEYNGDEYKIIQAHSSQSDWAPDRTPALWGKLPHRHHQQGQYQQQQECQPQQPQKTCYDYGKQEQAPQHSDSKEKKNWFGNITESQKQALEVGGGVALGAGLLGGAFAAWKHHQHKEEAHDSFEAWANAARSRAEEFRAKGPQGPATWVYNEGKHIPEQAILVGTEHNWNLYICRAYCDGGVQIGKASDVFKKGAVIGYKEDEHHLDKYEILLGDMRGLKWVQTGNSLDLASLGATPVEGGYENDHTRLYIARAFHKGAKHPGKVSERLDGAYIPYDGKEKCVKEYEVLCYL
modifications: var. bisporus; strain H97 / ATCC MYA-4626 / FGSC 10389
notes: protein of the 168 nutritive polypeptide library
Tagg pH 2.8 ([1]; pH 2.8, NS = protein not soluble): 95
Tagg pH 3.7 ([1]; pH 3.7, NS = protein not soluble): 95
Tagg pH 4.3 ([1]; pH 4.3, NS = protein not soluble): 95
Tagg pH 6.5 ([1]; pH 6.5, NS = protein not soluble): 45.5
Tagg (pH 7.1) ([1]; heated 25° C. to 95° C., NS = protein not soluble): 48.5
SGF Half-life (t½) [2]: 12 s
Half-life [2]: 12 s
% Remaining at 10 min [3]: 1.1%

B2: SEQID-00647: protein of the 168 nutritive polypeptide library (protein)
chain: MALSKIEEARQLNDDDLSEQILEIKKQLANLRLLKATGRLEKPHEIRHTRHRLSQLLTVERERQLPNQSPA
modifications: Arthrospira platensis C1
notes: as for B1
SGF Half-life (t½) [2]: 12 s
Half-life [2]: 12 s
% Remaining at 10 min [3]: 12%

AVG proportion activity, percentage AMP + ATP→2ADP converted relative to wild-type [4]: 0.9%
B3: D91F: single amino acid mutant of SEQID-00338 at magnesium ion binding site position 91 (protein, listed as Saccharomyces cerevisiae)
chain: MSSSESIRMVLIGPPGAGKGTQAPNLQERFHAAHLATGDMLRSQIAKGTQLGLEAKKIMDQGGLVSDDIMVNMIKDELTNNPACKNGFILFGFPRTIPQAEKLDQMLKEQGTPLEKAIELKVDDELLVARITGRLIHPASGRSYHKIFNPPKEDMKDDVTGEALVQRSDDNADALKKRLAAYHAQTEPIVDFYKKTGIWAGVDASQPPATVWADILNKLGKD
modifications: strain ATCC 204508 / S288c

AVG proportion activity, percentage AMP + ATP→2ADP converted relative to wild-type [4]: 0.4%
B4: D91I: single amino acid mutant of SEQID-00338 at magnesium ion binding site position 91 (protein, listed as Saccharomyces cerevisiae)
chain: MSSSESIRMVLIGPPGAGKGTQAPNLQERFHAAHLATGDMLRSQIAKGTQLGLEAKKIMDQGGLVSDDIMVNMIKDELTNNPACKNGFILIGFPRTIPQAEKLDQMLKEQGTPLEKAIELKVDDELLVARITGRLIHPASGRSYHKIFNPPKEDMKDDVTGEALVQRSDDNADALKKRLAAYHAQTEPIVDFYKKTGIWAGVDASQPPATVWADILNKLGKD
modifications: strain ATCC 204508 / S288c

B5: SEQID-00606: protein of the 168 nutritive polypeptide library (protein)
chain: MASEGDHHHHHHHHQDHDHHHHDHDHHHHHDGEGETNSWVGKDGKVYHSHDGLAPHSHEPIYSPGYFTRRAPPLLNRNFNERAFTVGIGGPVGTGKTALMLALCELLRENYSLAAVTNDIFTKEDGEFLVKHKALPEERIRAVETGGCPHAAIREDISINLGPLEELSNLFKADILLCESGGDNLAANFSRELADYIIYIIDVSGGDKIPRKGGPGITQADLLVINKTDLAPAIGADLAVMQRDALRMRDGGPFVFAQVKHKIGVEEIGNLVLQAWEAATGNKRH
modifications: Glycine max
notes: as for B1
Tagg (pH 7.1) ([1]; heated from 25° C. to 95° C.): 95
SGF Half-life (t½) [2]: 18 s
Half-life [2]: 18 s
% Remaining at 10 min [3]: 0%

B6: SEQID-00610: protein of the 168 nutritive polypeptide library (protein, listed as Saccharomyces cerevisiae)
chain: MVLEATVLVIDNSEYSRNGDFPRTRFEAQIDSVEFIFQAKRNSNPENTVGLISGAGANPRVLSTFTAEFGKILAGLHDTQIEGKLHMATALQIAQLTLKHRQNKVQHQRIVAFVCSPISDSRDELIRLAKTLKKNNVAVDIINFGEIEQNTELLDEFIAAVNNPQEETSHLLTVTPGPRLLYENIASSPIILEEGSSGMGAFGGSGGDSDANGTFMDFGVDPSMDPELAMALRLSMEEEQQRQERLRQQQQQQDQPEQSEQPEQHQDK
modifications: strain ATCC 204508 / S288c
notes: as for B1
SGF Half-life (t½) [2]: 24 s
Half-life [2]: 24 s
% Remaining at 10 min [3]: 3.3%
